# Assay results taken from the DeepSol protein solubility set.
# Assay: soluble on expression in E. coli; label from the status in PepcDB or PDB records
row,Sequence,soluble on expression in E. coli
1,EVQLQESGPSLVKPSQTLSLTCSVTGEPITSGFWDWIRKFPGNKLEFMGYIRYGGGTYYNPSLKSPISITRDTSKNHYYLQLNSVVTEDTATYYCARSRDYYGSSGFAFWGEGTLVTVSAAKTTPPSVYPLAPGCGDTTGSSVTLGCLVKGYFPESVTVTWNSGSLSSSVHTFPALLQSGLYTMSSSVTVPSSTWPSQTVTCSVAHPASSTTVDKKLE,soluble
2,EVQLQQSGAELVRPGALVKLSCKASGFNIKDYYMHWVKQRPEQGLELIGWIDPENGNTIYDPKFQDKASITADTSSNTAYLQLSSLTSEDTAVYYCARDTAAYFDYWGQGTTLTVSSAKTTPPSVYPLAPGSAAQTNSMVTLGCLVKGYFPEPVTVTWNSGSLSSGVHTFPAVLQSDLYTLSSSVTVPSSTWPSETVTCNVAHPASSTKVDKKKIP,soluble
3,EVQLVESGGGLVQPGGSLRLSCAASGFTFSRYTMSWVRQAPGKGLEWVATISGGGHTYYLDSVKGRFTISRDNSKNTLYLQMNSLRAEDTAVYYCTRGFGDGGYFDVWGQGTLVTVSSAKTTPPSVYPLAPGSAAQTNSMVTLGCLVKGYFPEPVTVTWNSGSLSSGVHTFPAVLQSDLYTLSSSVTVPSSTWPSETVTCNVAHPASSTKVDKKIVPRDCHHHHHH,soluble
4,EVVVTGYGDFKKATYTGSASVLNTDKLESLPVVSVAQMMEANIPGLSSVASSSQPGSKATVRVRGIASMNASTEPLYVLDGVPVASRDMSGLSANASAGGLGLIETLNPADIESITVLKDAASASLYGAKGSNGVILI,not soluble
5,FAEDPSPYVLLDRDLTMIWANAAYLRATGLARDEVVGRRMFDVFPAEAESIPDQMLRASLRRAVEQGRPDHLPLIPYPIRNQDGRMEERFWSATNTPIKDAEGHVEFILQNTNDIT,not soluble
6,FNSSINNIHEMEIQLKDALEKNQQWLVYDQQREVYVKGLLAKIFELEKKTETAAHSLP,soluble
7,FQGAMDPEFSMKIGIIGAMEEEVTLLRDKIENRQTISLGGCEIYTGQLNGTEVALLKSGIGKVAAALGATLLLEHCKPDVIINTGSAGGLAPTLKVGDIVVSDEARYHDADVTAFGYEYGQLPGCPAGFKADDKLIAAAEACIAELNLNAVRGLIVSGDAFINGSVGLAKIRHNFPQAIAVEMEATAIAHVCHNFNVPFVVVRAISDVADQQSHLSFDEFLAVAAKQSSLMVESLVQKLAHG,soluble
8,GAACNVLFINSVEMESLTGPQAISKAVAETLVADPTPTATIVHFKVSAQGITLTDNQRKLFFRRHYPLNTVTFCDLDPQERKWTKTDGSGPAKLFGFVARKQGSTTDNVCHLFAELDPDQPAAAIVNFVSRVML,soluble
9,GAADKRIDGNGNPETREIKISDYDEITFVGSADFEYEQSDKAPYLSVTIDENLFDYLVTEVEGGTLKIYPKSIKKGFNNNSYDLRPTVYKIKSNSKELKELNTVGSGSFIISKPTKVNRMEINMAGSGNVELRGPVKGYKLECNMAGSGNIIAKDIQLDNLSCSLASSGEIEVIGTVDRASFNVAGSGEIKAFDCQARKAECNIASSGEISVYATQILDANIVGSGEIHYKGDPEISKSIMGSGSINKVK,soluble
10,GAMAFDWDAYLEETGSEAAPAKCFKQAQNPPNNDFKIGMKLEALDPRNVTSTCIATVVGVLGSRLRLRLDGSDSQNDFWRLVDSTEIHAIGHCEKNGGMLQPPLGFCMNASSWPGYLCKILNNAMVAPEEIFQPEPPEPEENLFKVGQKLEAVDKKNPQLICCATVDAIKDDQIHVTFDGWRGAFDYWCNYRSRDIFPAGWCARSCHPMQPPGHKSRMDSSSSKQRCPRPRYTVVAESEAMVPASPATAHFHPNCKGGPFINNSK,soluble
11,GAMEDKVDAIREAIARNPQEIFQYVRLSQVKRDDKVLGYRVSPGKDPVLFESIGLQDGDMAVALNGLDLTDPNVMNTLFQSMNEMTEMSLTVERDGQQHDVYIQF,soluble
12,GAMGPREVTMKKGDILTLLNSTNKDWWKVEVNDRQGFVPAAYVKKLDSGTGKELVLALYDYQESGDNAPSYSPPPPP,soluble
13,GAMGSEESLKHATRIIDEVVSKFLDDLGNAKSHLMSLYSACSSEVPPGPVDQKFQSIVIGCALEDQKKIKRRLETLLRNIDNSDKAIK,soluble
14,GAMGSMSVSEANGTETIKPPMNGNPYGPNPSDFLSRVNNFSIIESTLREGEQFANAFFDTEKKIQIAKALDNFGVDYIELTSPVASEQSRQDCEAICKLGLKCKILTHIRCHMDDARVAVETGVDGVDVVIGTSQYLRKYSHGKDMTYIIDSATEVINFVKSKGIEVRFSSEDSFRSDLVDLLSLYKAVDKIGVNRVGIADTVGCATPRQVYDLIRTLRGVVSCDIECHFHNDTGMAIANAYCALEAGATHIDTSILGIGERNGITPLGALLARMYVTDREYITHKYKLNQLRELENLVADAVEVQIPFNNYITGMCAFTHKAGIHAKAILANPSTYEILKPEDFGMSRYVHVGSRLTGWNAIKSRAEQLNLHLTDAQAKELTVRIKKLADVRTLAMDDVDRVLREYHADLSDADRITKEASA,soluble
15,GASALSLSLLSISRSGNTVTLIGDFPDEAAKAALMTALNGLLAPGVNVIDQIHVDPVVRSLDFSSAEPVFTASVPIPDFGLKVERDTVTLTGTAPSSEHKDAVKRAATSTWPDMKIVNNIEVTGQAPPGPPA,soluble
16,GGGVKAFAFIGALQVLEENGFSFTRVAGTSAGAIFASLVCSGYRSDELFSIMEQLDGKMFKDGGKVMPFPFAKWLRLYFKLGMYKGDQLEKWLIQVLGHKGVSTFADLPKGALKIVASDISRGRLIVLPDDLKDYGLIPERFSVARAVRMSCGIPYFFQPVKLYNRKRRGERSYVVDGGILSNFPIWL,not soluble
17,GGSSRHQFDLIMCLKQPGVQTGLLCEKCDGKCPICDSYVRPKRKVRVCENCSFGKQAKNCIICNLNVGVNDAFYCWECCRLGKDKDGCPRILNLGSNRLDRHFEKKKKV,soluble
18,GHHHHHHMTTQLEQAWELAKQRFAAVGIDVEEALRQLDRLPVSMHCWQGDDVSGFENPEGSLTGGIQATGNYPGKARNASELRADLEQAMRLIPGPKRLNLHAIYLESDTPVSRDQIKPEHFKNWVEWAKANQLGLDFNPSCFSHPLSADGFTLSHADDSIRQFWIDHCKASRRVSAYFGEQLGTPSVMNIWIPDGMKDITVDRLAPRQRLLAALDEVISEKLNPAHHIDAVESKLFGIGAESYTVGSNEFYMGYATSRQTALCLDAGHFHPTEVISDKISAAMLYVPQLLLHVSRPVRWDSDHVVLLDDETQAIASEIVRHDLFDRVHIGLDFFDASINRIAAWVIGTRNMKKALLRALLEPTAELRKLEAPGDYTARLALLEEQKSLPWQAVWEMYCQRHDTPAGSEWLESVRAYEKEILSRRG,soluble
19,GHLDDNVTQEDIQAMLQEGSSAGVIEHNEHAMVKNVFRLDERTISSLMVPRSDIVFLDLNLPLDANLRTVMQSPHSRFPVCRNNVDDMVGIISAKQLLSESIAGERLELVDLVKNCNFVPNSLSGMELLEHFRTTGSQMVFVVDEYGDLKGLVTLQDMMDALTGEFFQEDGS,soluble
20,GHMEVTLIVFHAGSLSVPFQEVEKEFSEYAERNLGIKVSFQDEASGSVMAVRKVTDLGRKADVIGVADYTLIPQLLIPNYTDFYVLFATNEIVIAFTDKSRYVEEMKSNPDKWYEILAREDVRFGFSDPNQDPCGYRSLMVIKLADLYYGKEIFKELIEENTNIYSNGTQIYAPKEITVNPGKIVIRPKETDLLGLVESGSIDYIFIYKSVAKQHNLSYITLPSEINLGDFSKEKFYGQISITLGSTGKTIKAKPIVYGVTVLKDAPNREVAIEFLRYLLSENGKRIFEKNHQDFL,soluble
